{"source": "patent US20190062438A1", "about": "(CSL, published 2019)", "key": {"[1]": {"target": "T1, soluble Homo sapiens CD131 comprising a C-terminal 6xHis tag (human, UniProt P32927 17-438)", "T1 construct": "truncated after Ser438, C-terminal 6xHis; also called shCD131; shβc", "T1 sequence": "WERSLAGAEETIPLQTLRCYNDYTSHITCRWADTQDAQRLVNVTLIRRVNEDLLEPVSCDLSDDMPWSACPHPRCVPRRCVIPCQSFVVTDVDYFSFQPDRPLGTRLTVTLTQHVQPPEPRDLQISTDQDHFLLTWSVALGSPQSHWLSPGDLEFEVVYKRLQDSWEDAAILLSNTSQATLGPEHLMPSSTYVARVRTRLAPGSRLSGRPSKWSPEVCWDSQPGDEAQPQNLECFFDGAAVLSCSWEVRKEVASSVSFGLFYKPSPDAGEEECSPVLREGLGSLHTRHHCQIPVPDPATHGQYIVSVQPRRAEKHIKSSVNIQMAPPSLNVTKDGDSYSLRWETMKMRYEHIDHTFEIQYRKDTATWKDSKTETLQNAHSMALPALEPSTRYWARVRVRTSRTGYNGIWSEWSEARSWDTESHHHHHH", "experiment": "SPR, Fab over captured shCD131", "protocol": "Binding kinetics were measured using SPR with a BIAcore™ A-100 instrument (GE Healthcare Life Sciences). An anti-C-terminal Hexa-His antibody (3H3) was immobilized on spots 1, 2, 4 and 5 of each flow cell of a CM-5 sensor chip (GE Healthcare Life Sciences) using amine-coupling chemistry (116). […] As shβc is a dimer, kinetics assays were performed with shβc captured on the sensor surface, and purified Fab injected as the analyte. Avidity effects were avoided by the use of Fab rather than whole IgG.\n(§1) shCD131 was captured on spots 1 and 5 of each flow cell for 2 minutes at a concentration of 0.4 μg/ml. […] For some analysis purified Fab was injected over each flow cell for 3 minutes and dissociation was monitored for a further 10 minutes. Regeneration of the surface was performed after each cycle with a 40 second injection of 25 mM glycine, pH 2.0. The analysis was performed with Fabs at several concentrations between 100 and 0.31 nM, with each concentration analyzed twice and in random order. The analysis was performed at a flow rate of 30 μl/min in HBS-EP buffer (10 mM Hepes, 150 mM NaCl, 3 mM EDTA, 0.005% Tween 20, pH 7.4) at 37° C. Responses from spots 2 and 4 of each flow cell, (in which shβc was not captured, but otherwise treated identically), were subtracted from those of spots 1 and 5 respectively to produce reference subtracted data. Reference subtracted responses from a blank injection comprising buffer alone were subtracted from the resultant sensorgrams to produce double referenced data suitable for kinetic analysis. Double-referenced sensorgrams were fitted using non-linear regression to a model describing 1:1 kinetics, including a term for mass transport limitation. The Rₘₐₓ value was fitted locally to account for slight deviations in the level of sCD131 captured, with association rate (kₐ), dissociation rate (kd) and equilibrium dissociation constant (KD) fitted globally."}, "shCD131 F103A": {"target": "T2, shCD131 F103A (human, UniProt P32927 17-438)", "T2 construct": "C-terminal 6xHis", "T2 sequence": "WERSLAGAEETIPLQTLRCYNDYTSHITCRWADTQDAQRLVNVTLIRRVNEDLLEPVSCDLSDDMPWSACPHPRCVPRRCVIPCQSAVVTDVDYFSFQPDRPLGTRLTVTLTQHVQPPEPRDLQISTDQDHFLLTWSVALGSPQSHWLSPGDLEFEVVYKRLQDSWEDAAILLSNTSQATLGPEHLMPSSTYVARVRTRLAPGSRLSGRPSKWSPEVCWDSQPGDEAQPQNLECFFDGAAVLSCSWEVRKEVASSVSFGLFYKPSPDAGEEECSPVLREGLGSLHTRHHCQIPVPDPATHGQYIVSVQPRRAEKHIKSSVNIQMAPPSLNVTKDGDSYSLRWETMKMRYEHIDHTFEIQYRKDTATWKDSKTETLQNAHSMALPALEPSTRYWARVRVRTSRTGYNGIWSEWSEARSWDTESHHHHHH", "experiment": "SPR, Fab over captured mutant", "protocol": "As shβc is a dimer, kinetics assays were performed with shβc captured on the sensor surface, and purified Fab injected as the analyte. Avidity effects were avoided by the use of Fab rather than whole IgG.\nas §1\nMapping of the shCD131 epitope was performed by measurement of the affinity of Fabs for various alanine point mutants of shCD131 essentially as described above, with the following exceptions. Each shCD131 mutant was captured for 120 seconds at concentrations between 1 and 5 μg/ml. For kinetic analysis, purified recombinant Fabs were injected for 2 minutes, and dissociation was monitored for a further 2 minutes. […] Fab concentrations ranged from 16 μM to 3.9 nM in two-fold dilutions."}, "[2]": {"target": "T1, soluble Homo sapiens CD131 comprising a …", "experiment": "SPR, kinetics, Fab over captured shCD131"}}, "data": [{"binder": "9A2 Fab (Fab, V domains shown, also called recombinant Fab of 9A2) VH: EVQLLESGGGLVQPGGSLRLSCAASGFTFSHYHMLWVRQAPGKGLEWVSSIRSSGGFTYYADSVKGRFTISRDNSKNTLYLQMNSLRAEDTAVYYCARFYDSFFDIWGQGTMVTVSS VL: DIQMTQSPSSVSASVGDRVTITCRASQGISSWLAWYQQKPGKAPKLLIYAASSLQSGVPSRFSGSGSGTDFTLTISSLQPEDFATYYCQQANSFPITFGQGTRLEIKR", "values": [{"measurement": "Kd", "setting": "[1]", "value": 0.049, "unit": "µM"}, {"measurement": "koff", "setting": "[1]", "value": 0.096, "unit": "s⁻¹"}, {"measurement": "kon", "setting": "[1]", "value": "2e+06", "unit": "M⁻¹ s⁻¹"}, {"measurement": "binding result", "setting": "shCD131 F103A", "value": "no binding (tested: Fab up to 16 µM)"}, {"measurement": "Kd", "setting": "[2]", "value": 0.049, "unit": "µM"}]}]}
